This is an account of results in patent US20250333515A1.

First the molecules themselves.
B1: Anti-CLL-1 Binder Clone 11 (scFv, not shown: small tags and cut ends)
scFv: QSVLTQPASVSGSPGQSITISCTGTSSDVGASNSVSWYQRHPGKPPKLMIYDVSNRPSGISNRFSGSKSGNTASLTISGLQSEDEADYYCSSYTGSSTFVVFGGGTQLIILGGGGSGGGGSGGGGSEVQLVESGGGVVQPGGSLRLSCAASGFTFSSYWMSWVRQAPGKGLEWVANIRQDGSEKYYVDSVKGRFTISRDNAKNSLYLQMNSLRAEDAAVYYCAREQDTAMVAFDYWGQGTLVTVSS
B2: Anti-CLL-1 Binder Clone 40 (scFv, not shown: small tags and cut ends)
scFv: QSVLTQPPSVSAAPGQKVTISCSGSSSNIGNNYVSWYQQLPGTAPKLLIYDNNKRPSGIPDRFSGSESGTSATLGITGLQTGDEADYYCGTWDSSLSAWVFGGGTQLIILGGGGSGGGGSGGGGSQVQLQQSGPGLVKPSQTLSLTCAISGDSVSSNSAAWNWIRQSPSRGLEWLGRTHYRSKWYNDYAVSVKSRITISADTSKNQFSLQLNSVTPEDTAVYYCARDRYTVRPDAFDIWGQGTTVTVSS
B3: Anti-CLL-1 Binder Clone 20 (VHH, not shown: small tags and cut ends)
VHH: QVQLVQSGGGLVQPGGSLRLSCAASDFSFSYYEMSWVRQAPGKGLEWVSTISGSGDSTYYADSVKGRFTISRDNTKNTLYLQMNTLRAEDTATYYCMTDGETWGTHRYTVYWGQGALVTVSS
B4: Anti-CLL-1 Binder Clone 38 (scFv, not shown: small tags and cut ends)
scFv: DIQMTQSPSTLSASVGDRVTITCRASQSISSWLAWYQQKPGKAPKLLIYTASSLQSGVPSRFSGSESGTDFTLTISSLQPEDFATYYCQQSYSTPLTFGGGTKVDIKGGGGSGGGGSGGGGSQVQLVQSGAEVKKPGASVKVSCKASGYTFTGYYMHWVRQAPGQGLEWMGWINPNSGGTNYAQKFQGRVTLTRDTSITTAYLELTSLTSDDTAVYYCARGDTGDFFDHWGQGTLVTVSS

The target in one assay is biotinylated recombinant human CLL-1 extracellular domain protein, isoform with lysine at amino acid position 244 (human) (UniProt Q5QGZ9). The assay is described as follows: Exp 1 (= Octet, CLL-1-K244 of FIG. 12B). For orientation: BLI is a label-free optical method that tracks binding on a fibre tip over time.
Chain of biotinylated recombinant human CLL-1 extracellular domain protein, isoform with lysine at amino acid position 244 (human) (Q5QGZ9 65-265): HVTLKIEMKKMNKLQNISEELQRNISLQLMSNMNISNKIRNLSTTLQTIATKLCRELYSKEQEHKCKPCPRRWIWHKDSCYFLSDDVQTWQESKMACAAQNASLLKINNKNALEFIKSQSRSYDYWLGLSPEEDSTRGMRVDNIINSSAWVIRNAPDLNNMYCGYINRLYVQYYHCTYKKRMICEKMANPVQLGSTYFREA
On to B1, for which the Kd (as a rule, the constant that tells how readily two partners part at equilibrium) came to 16.6 nM.

For B2, the Kd stood at 8.35 nM.

With B3, the Kd turned out to be 5.68 nM.

Take B4: the dissociation constant Kd turned out to be 1.74 nM.

For another assay the target is unchanged. Put plainly: Octet (CLL-1-K244); variant column says Only Q.
Take B2: the Kd is 8.35 nM.

Another assay shares this target. The assay is described as follows: Octet (CLL-1-K244); variant column: Q>K.
For the molecule B1, the Kd stood at 16.6 nM.

For another assay, the target named is biotinylated recombinant human CLL-1 extracellular domain protein, isoform with glutamine at amino acid position 244 (human) (UniProt Q5QGZ9). Put plainly: Exp 2 (= Blitz, CLL-1-Q244 of FIG. 12B).
Chain of biotinylated recombinant human CLL-1 extracellular domain protein, isoform with glutamine at amino acid position 244 (human) (Q5QGZ9 65-265): as above
For B1, the Kd was determined as 41 nM.

On to B2, for which the Kd came out at 14 nM.

Regarding B3, the Kd is 33 nM.

For the molecule B4, the Kd amounted to 14 nM.

The target is the same in a further assay. Put plainly: BLItz, 1:1 model (Q244 per FIG. 12B).
As to B1, the Kd came out at 41 nM; the koff (in general, a measure of how fast the partners let go of each other) came to 0.0023 s⁻¹; the kon (commonly a measure of how fast the partners come together) amounted to 59000 M⁻¹ s⁻¹.

Turning to B2, the Kd was found to be 14 nM, the koff worked out at 0.00081 s⁻¹ and the kon was determined as 58000 M⁻¹ s⁻¹.

Regarding B3, the Kd was determined as 33 nM, the koff is 0.0035 s⁻¹ and the kon amounted to 110000 M⁻¹ s⁻¹.

Regarding B4, the Kd came out at 14 nM, the koff was 0.00097 s⁻¹ and the kon is 69000 M⁻¹ s⁻¹.

The next assay shares this target. Put plainly: Blitz (CLL-1-Q244).
On to B1, for which the Kd is 41 nM.

For B2, the Kd turned out to be 14 nM.

B3: the Kd is 33 nM.

For B4, the Kd was determined as 14 nM.

A further assay has as its target biotinylated recombinant human CLL-1 extracellular domain protein, isoform with lysine at amino acid position 244 (human) (UniProt Q5QGZ9). The assay is described as follows: Octet (CLL-1-K244); variant: Both.
Turning to B3, the Kd came to 5.68 nM.

Turning to B4, the Kd was 1.74 nM.
